Test results published in publication PMC11054337 (2024).

Key:
[1] = target: T1, phosphofructokinase PTS1 peptide (Leishmania donovani); experiment: fluorescence polarization competition
[2] = target: T2, galactokinase PTS1 peptide (Leishmania donovani); experiment: fluorescence polarization competition
[3] = target: T3, xanthine phosphoribosyltransferase PTS1 peptide (Leishmania donovani); experiment: fluorescence polarization competition
[4] = target: T1, phosphofructokinase PTS1 peptide; experiment: fluorescence polarization
[5] = target: T2, galactokinase PTS1 peptide; experiment: fluorescence polarization
[6] = target: T3, xanthine phosphoribosyltransferase PTS1 …; experiment: fluorescence polarization

B1: PEX5 303-625 (protein)
chain: RLQKVTNSTDYPFEPNNPYMFHDFPFDEGMEMLQLGNLAEAALAFEAVCHKDSSNEKAWQILGTTQAENEKDGLAIIALNNARKLNPRNLEVHAALSVSHTNERNADAAMDSLKAWLVNHPEYEQLASVSIPPNAELDVQETFFFADPSRMREARTLYEAAIEMNPSDSQLFTNLGVLHNVAHEFDEAAECFRKAVALHPDDPKMWNKLGATLANGGHPDQALEAYNRALDINPGYVRAMYNMAVAYSNMSQYNMAARQIVKAIASQQGGTKPSGEGSIMATRNMWDLLRMTLNLMDRDDLVQLTYNEQLEPFVKEFGLEGHV
- IC50 [1]: > 60 µM
- IC50 [2]: 10.7 µM
- IC50 [3]: 3.61 µM
- Kd [4]: 102 nM
- Kd [5]: 382 nM
- Kd [6]: 78 nM
